The source of these data is patent US20210380656A1 (ACADEMISCH ZIEKENHUIS LEIDEN H O D N LUMC, published 2021).

T1: HA-1^H, minor histocompatibility antigen encoded by HMHA1 (Rho GTPase-activating protein 45), R139H … (human)
T1 peptide: VLHDDLLEA

B1: HA-1^H TCR M2 (TCR, V domains shown)
Valpha: GENVEQHPSTLSVQEGDSAVIKCTYSDSASNYFPWYKQELGKRPQLIIDIRSNVGEKKDQRIAVTLNKTAKHFSLHITETQPEDSAVYFCAARNSGAGSYQLTFGKGTKLSVIP
Vbeta: DTGVSQNPRHKITKRGQNVTFRCDPISEHNRLYWYRQTLGQGPEFLTYFQNEAQLEKSRLLSDRFSAERPKGSFSTLEIQRTEQGDSAMYLCASLTVQNTEAFFGQGTRLTVV
B2: HA-1^H TCR M7 (TCR, V domains shown)
Valpha: GQQVMQIPQYQHVQEGEDFTTYCNSSTTLSNIQWYKQRPGGHPVFLIQLVKSGEVKKQKRLTFQFGEAKKNSSLHITATQTTDVGTYFCAGNTGGFKTIFGAGTRLFVKA
Vbeta: DTGVSQDPRHKITKRGQNVTFRCDPISEHNRLYWYRQTLGQGPEFLTYFQNEAQLEKSRLLSDRFSAERPKGSFSTLEIQRTEQGDSAMYLCASSLLGNQPQHFGDGTRLSIL
B3: Chimeric HA-1 TCR: M7 TCR alpha chain (TRAV25*01) with M2 TCR beta chain (TRBV7-9) (TCR, V domains shown)
Valpha: B2 Valpha
Vbeta: B1 Vbeta
B4: HA-1-TCR of clone M2 (M2 TRBV7-9 with M2 TRAV13-1*02) (TCR, V domains shown)
V domain 1: B1 Valpha
V domain 2: DTGVSQNPRHKITKRGQNVTFRCDPISEHNRLYWYRQTLGQGPEFLTYFQNEAQLEKSRLLSDRFSAERPKGSFSTLEIQRTEQGDSAMYLCASLTVQNTEAFFGQGTRLTVVE
notes: Expressed on transduced peripheral T cells; also called HA-1^H TCR M2
B5: Chimeric TCR: M2 TRBV7-9 beta chain with M7 TRAV25*01 alpha chain (TCR, V domains shown)
V domain 1: B2 Valpha
V domain 2: B4 V domain 2
notes: The entries include the leader
B6: HA-1-TCR of clone M7 (M7 TRBV7-9 with M7 TRAV25*01), unmodified (TCR, V domains shown)
V domain 1: B2 Valpha
V domain 2: GVSQDPRHKITKRGQNVTFRCDPISEHNRLYWYRQTLGQGPEFLTYFQNEAQLEKSRLLSDRFSAERPKGSFSTLEIQRTEQGDSAMYLCASSLLGNQPQHFGDGTRLSILE
notes: Expressed on transduced T cells; also called HA-1^H TCR M7; HA-1-TCR WT

The target of the first assay is T1, HA-1^H, minor histocompatibility …. Put plainly: multimer staining.
For the molecule B1, the binding result is reported as “recognises”.

With B2, the binding result is given as “recognises”.

For B3, the binding result is “recognises”.

In another assay the target is T2, HA-1 pMHC tetramer (human).
T2 construct: also called HA-1 tetramer; HA-1-tetramer
As to the kind of experiment: HA-1 pMHC tetramer staining of peripheral T cells transduced with the TCR chains, flow cytometry. On the technique in general: Flow cytometry measures light scatter and fluorescence of single cells or particles in a stream.
Regarding B4, the “MFI of HA-1 pMHC tetramer” value came out at 24.2 MFI.

On to B5, for which the “MFI of HA-1 pMHC tetramer” value was found to be 32.6 MFI.

B6: the “MFI of HA-1 pMHC tetramer” value was determined as 33.8 MFI.
